Patent US20230265151A1, “GIP/GLP1 CO-AGONIST COMPOUNDS” (priority 2020, published 2023)

T1: human GIP receptor (human) (UniProt P48546)
T1 sequence (looked up): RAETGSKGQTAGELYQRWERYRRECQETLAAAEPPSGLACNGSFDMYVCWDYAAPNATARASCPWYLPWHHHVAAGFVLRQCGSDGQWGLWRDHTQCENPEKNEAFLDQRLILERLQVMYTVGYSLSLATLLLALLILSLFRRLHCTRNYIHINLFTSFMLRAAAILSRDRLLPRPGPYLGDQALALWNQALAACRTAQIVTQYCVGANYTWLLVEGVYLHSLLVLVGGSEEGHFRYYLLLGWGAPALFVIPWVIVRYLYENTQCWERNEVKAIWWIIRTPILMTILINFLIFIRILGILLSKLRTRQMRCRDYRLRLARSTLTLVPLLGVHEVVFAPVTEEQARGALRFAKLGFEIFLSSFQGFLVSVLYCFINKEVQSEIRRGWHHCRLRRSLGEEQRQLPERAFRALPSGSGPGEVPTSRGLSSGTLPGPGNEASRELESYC

T2: human GIP receptor (human, UniProt P48546 22-466)
T2 sequence (looked up): T1 sequence (looked up)

B1: Example 334 (peptide)
peptide: YXEGTXTSDXXIXLDXKAQXEFIXXLIKGGPSSGAPPPS
modifications: Y-Aib-EGT-αMeF(2F)-TSD-4Pal-Aib-I-αMeL-LD-Orn-K((2-[2-(2-Amino-ethoxy)-ethoxy]-acetyl)2-(γ-Glu)-CO-(CH2)10-CH3)AQ-Aib-EFI-(D-Glu)-αMeY-LIK((2-[2-(2-Amino-ethoxy)-ethoxy]-acetyl)2-(γ-Glu)-CO-(CH2)10-CH3)GGPSSGAPPPS-NH2

Tests used:
Assay in all cases: cell-based or functional assay
[1] = molecular target: human glucagon receptor (human) (UniProt P47871)
[2] = molecular target: T1, human GIP receptor (human)
hGLP-1R = hGLP-1R (Homo sapiens, UniProt P43220)
human GLP-1 receptor = human GLP-1 receptor (human, UniProt P43220 24-463)
human GIP receptor = molecular target: T2, human GIP receptor

Molecule	cAMP EC50 (1.0% HSA) [1] [nM]	cAMP EC50 (1.0% HSA) [2] [nM]	cAMP Emax (1.0% HSA) [2] [%]	cAMP EC50 (1.0% HSA) (hGLP-1R) [nM]	cAMP Emax (1.0% HSA) (hGLP-1R) [%]	cAMP EC50 [1] [nM]	cAMP EC50 [2] [nM]	cAMP Emax [2] [%]	cAMP EC50 (hGLP-1R) [nM]	cAMP Emax (hGLP-1R) [%]	cAMP EC50 (1.0% HSA) (human GLP-1 receptor) [nM]	cAMP EC50 (1.0% HSA) (human GIP receptor) [nM]
Y-Aib-EGT-αMeF(2F)-TSD-4Pal-SI-αMeL-LD-Orn-K((2-[2-(2-Amino-ethoxy)-ethoxy]-acetyl)2-(γ-Glu)-CO-(CH2)12-CO2H)AQ-Aib-EFIK((2-[2-(2-Amino-ethoxy)-ethoxy]-acetyl)2-(γ-Glu)-CO-(CH2)12-CO2H)-αMeY-LIEG-Orn-NH2 (peptide)	> 9950	1.55	82.8	28.9	112	–	–	–	–	–	–	–
Y-Aib-EGT-αMeF(2F)-TSD-4Pal-SI-αMeL-LD-Orn-K((2-[2-(2-Amino-ethoxy)-ethoxy]-acetyl)2-(γ-Glu)-CO-(CH2)12-CO2H)AQ-Aib-EFI-(D-Glu)-αMeY-LIEGGK((2-[2-(2-Amino-ethoxy)-ethoxy]-acetyl)2-(γ-Glu)-CO-(CH2)12-CO2H)SSG-Orn-PPPS-NH2 (peptide)	> 9950	1.15	94.1	40.8	98.2	–	–	–	–	–	–	–
Y-Aib-EGT-αMeF(2F)-TSD-4Pal-SI-αMeL-LD-Orn-IAQ-Aib-K((2-[2-(2-Amino-ethoxy)-ethoxy]-acetyl)2-CO-(CH2)12-CO2H)FIK((2-[2-(2-Amino-ethoxy)-ethoxy]-acetyl)2-CO-(CH2)12-CO2H)-αMeY-…-NH2 (peptide)	> 9950	0.866	86.2	13.1	105	–	–	–	–	–	–	–
Y-Aib-EGT-αMeF(2F)-TSD-4Pal-SI-αMeL-LD-Orn-K((2-[2-(2-Amino-ethoxy)-ethoxy]-acetyl)2-(γ-Glu)-(4-(4-tert-butylphenyl)butanoyl))AQ-Aib-EFI-(D-Glu)-K((2-[2-(2-Amino-ethoxy)-ethoxy]-acetyl)2-(γ-Glu)-(4-(4-tert-butylphenyl)butanoyl))…-NH2 (peptide)	> 9950	0.0417	91.9	12	104	–	–	–	–	–	–	–
Y-Aib-EGT-αMeF(2F)-TSD-4Pal-SI-αMeL-LD-Orn-K((2-[2-(2-Amino-ethoxy)-ethoxy]-acetyl)2-(γ-Glu)-(4-(4-tert-butylphenyl)butanoyl))AQ-Aib-EFIE-K((2-[2-(2-Amino-ethoxy)-ethoxy]-acetyl)2-(γ-Glu)-(4-(4-tert-butylphenyl)butanoyl))…-NH2 (peptide)	> 9950	0.0831	92.4	5.79	102	–	–	–	–	–	–	–
Y-Aib-EGT-αMeF(2F)-TSD-4Pal-SI-αMeL-LD-Orn-K((2-[2-(2-Amino-ethoxy)-ethoxy]-acetyl)2-(γ-Glu)-CO-(CH2)14-CH3)AQ-Aib-EFI-(D-Glu)K((2-[2-(2-Amino-ethoxy)-ethoxy]-acetyl)2-(γ-Glu)-CO-(CH2)14-CH3)…-NH2 (peptide)	> 9950	0.148	98.2	1.73	102	–	–	–	–	–	–	–
Y-Aib-EGT-αMeF(2F)-TSD-4Pal-SI-αMeL-LD-Orn-K((εK)-(εK)-(γ-Glu)-CO-(CH2)12-CO2H)AQ-Aib-EFI-(D-Glu)-αMeY-LIEGGK((εK)-(εK)-(γ-Glu)-CO-(CH2)12-CO2H)-NH2 (peptide)	> 9950	0.939	79.3	18	109	–	–	–	–	–	–	–
Y-Aib-EGT-αMeF(2F)-TSD-4Pal-SI-αMeL-LD-Orn-K((2-[2-(2-Amino-ethoxy)-ethoxy]-acetyl)2-(γ-Glu)-CO-(CH2)12-CO2H)AQ-Aib-EFI-(D-Glu)-αMeY-LIEGGK((2-[2-(2-Amino-ethoxy)-ethoxy]-acetyl)2-(γ-Glu)-CO-(CH2)12-CO2H)SSG-Orn-PPP-Orn-NH2 (peptide)	> 9950	1.25	96.5	34.6	102	–	–	–	–	–	–	–
Y-Aib-EGT-αMeF(2F)-TSD-4Pal-SI-αMeL-LD-Orn-K((2-[2-(2-Amino-ethoxy)-ethoxy]-acetyl)2-(γ-Glu)-CO-(CH2)12-CO2H)AQ-Aib-EFI-(D-Glu)-αMeY-LIEGGK((2-[2-(2-Amino-ethoxy)-ethoxy]-acetyl)2-(γ-Glu)-CO-(CH2)12-CO2H)-NH2 (peptide)	> 9950	2.46	81.2	119	87.8	–	–	–	–	–	–	–
B1	–	–	–	–	–	> 9950	0.00987	103	0.131	104	8.67	0.618
